Paper PMC3058729

Target: GST fusion protein of the cytoplasmic region of DSC2a A897fsX900 (aa 716–899) (human) (UniProt Q02487)
Assay: pull-down

UniProt Q02487, sequence (Q02487 716-899): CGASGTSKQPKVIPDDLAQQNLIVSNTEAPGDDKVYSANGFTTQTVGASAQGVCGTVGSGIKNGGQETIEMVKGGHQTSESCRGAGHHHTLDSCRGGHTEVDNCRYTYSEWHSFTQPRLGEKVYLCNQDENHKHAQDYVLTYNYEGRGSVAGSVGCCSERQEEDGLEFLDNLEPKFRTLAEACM

B1: plakoglobin (PG), endogenous in adult rat heart lysate (natural protein)
chain: MEVMNLIEQPIKVTEWQQTYTYDSGIHSGVNTCVPSVSSKGLLDEDDTCGRQYTLKKTTTYTQGVPQSQGDLEYQMSTTARAKRVREAMCPGVSGEDSSLLLATQVEGQTTNLQRLAEPSQLLKSAIVHLINYQDDAELATRALPELTKLLNDEDPVVVTKAAMIVNQLSKKEASRRALMGSPQLVAAVVRTMQNTSDLDTARCTTSILHNLSHHREGLLAIFKSGGIPALVRMLSSPVESVLFYAITTLHNLLLYQEGAKMAVRLADGLQKMVPLLNKNNPKFLAITTDCLQLLAYGNQESKLIILANGGPQGLVQIMRNYSYEKLLWTTSRVLKVLSVCPSNKPAIVEAGGMQALGKHLTSNSPRLVQNCLWTLRNLSDVATKQEGLENVLKILVNQLSVDDVNVLTCATGTLSNLTCNNSKNKTLVTQNSGVEALIHAILRAGDKDDITEPAVCALRHLTSRHPEAEMAQNSVRLNYGIPAIVKLLNQPNQWPLVKATIGLIRNLALCPANHAPLQEAAVIPRLVQLLVKAHQDAQRHVAAGTQQPYTDGVRMEEIVEGCTGALHILARDPMNRMEIFRLNTIPLFVQLLYSSVENIQRVAAGVLCELAQDKEAADAIDAEGASAPLMELLHSRNEGTATYAAAVLFRISEDKNPDYRKRVSVELTNSLFKHDPAAWEAAQSMIPINEPYADDMDATYRPMYSSDVPLDPLDMHMDMDGDYPMDTYSDGLRPPYPAADHMLA
  reduction of binding against DSC2a WT (densitometry): 50%
